For 3 substances, fold increase in the overall binding curve compared to wild-type, E1E2-mediated entry of pseudotyped HIV-1 particles into Huh7 cells (luciferase) and percent reduction in CD81 binding compared to E2 Δ23-myc results are on record in patent publication US20110014209A1.

In assay [1] the target is CD81 MBP-LEL (maltose-binding protein fused to the CD81 large extracellular loop, residues 113-201) (human) (UniProt P60033). Kind of assay: CD81 MBP-LEL solid-phase assay, virion-incorporated E2.
Chain of CD81 MBP-LEL (maltose-binding protein fused to the CD81 large extracellular loop, residues 113-201) (human) (P60033 113-201 limits assumed): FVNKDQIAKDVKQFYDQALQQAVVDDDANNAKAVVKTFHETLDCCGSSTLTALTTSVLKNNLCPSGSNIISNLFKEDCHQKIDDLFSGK
The target of assay [2] is HCV E1 glycoprotein (H77c), expressed from the pE1E2 vectors (hepatitis C virus H77c) (UniProt P27958). Kind of assay: cell-based or functional assay.
The target in assay [3] is full-length human CD81 expressed on transfected CHO-K1 cells (human) (UniProt P60033). Kind of assay: binding to CD81-transfected CHO-K1 cells, 125I-9E10 detection.
Chain of full-length human CD81 expressed on transfected CHO-K1 cells (human) (P60033 whole entry): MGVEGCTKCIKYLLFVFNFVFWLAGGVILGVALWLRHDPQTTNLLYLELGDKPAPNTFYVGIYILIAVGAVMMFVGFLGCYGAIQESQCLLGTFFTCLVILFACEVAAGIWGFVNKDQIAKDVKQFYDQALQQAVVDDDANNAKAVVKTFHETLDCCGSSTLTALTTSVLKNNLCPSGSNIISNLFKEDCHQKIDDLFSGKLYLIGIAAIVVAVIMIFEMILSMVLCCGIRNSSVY

The substance “E2 glycoprotein expressed from pE1E2 Δ1 (HVR1 deletion, residues 387-408 replaced by GSSG) (from UniProt P27958 409-746)” had a fold increase in the overall binding curve compared to wild-type in assay [1] of 4 fold. In turn, “E2 glycoprotein expressed from pE1E2 Δ3 link (igVR deletion with extended linker) (from UniProt P27958 384-571; P27958 579-746)” registered an E1E2-mediated entry of pseudotyped HIV-1 particles into Huh7 cells (luciferase) in assay [2] of 8 fold. Regarding “E2 Δ12-myc (from UniProt P27958 384-386; P27958 409-459; P27958 486-661)”, the percent reduction in CD81 binding compared to E2 Δ23-myc in assay [3] is 50%.
